The chains are these.
B1: DLLBII101H09 (VHH)
VHH: EVQLVESGGGLVQPGGSLRLSCAASGFTLGYYTIVWFRQAPGKERKGVSCISSRDGSRYYADSVKGRFTISRDNAKNTVYLRMNSLKPEDTAVYYCAAGPDCSSYDYWGQGTQVTVSS
notes: tested as periplasmic extract; also called DLLBII101H9; not shown: C-terminal c-myc tag and His6 tag
B2: DLLBII104A03 (VHH)
VHH: EVQLVESGGGLVQAGGSLRLSCAASGDIPRIAAMGWYRQAPGKQRELVATVSNAATTRYADSAKGRFTISRDNAKTVSLQMDNLKPEDTGVYYCYSLATTVTPSWVNYWGQGTQVTVSS
notes: tested as periplasmic extract; also called DLLBII104A3; not shown: C-terminal c-myc tag and His6 tag
B3: DLLBII62C11 (VHH)
VHH: EVQLMESGGGLVQPGGSLRLSCVAAGFTFSNYYMSWVRQAPGKGLEWVSVISPDGSNTYYADTVKGRFTISRGNAKNTLFLQMTGLKSEDAAVYYCARGSGSWGVHGQGTQVTVSS
notes: not shown: C-terminal c-myc tag and His6 tag
B4: DLLBII58A11 (VHH)
VHH: EVQLVESGGGLVQAGGSLRLSCTTSERTVSRYSMGWFRQAPGKEREAVATISWSGDSTYYADSVKGRFTISRDNTKNTLYLQIDSLKPEDTAVYYCVAKPNLKYGSYWPPRGYDYWGQGTQVTVSS
notes: tested as periplasmic extract; not shown: C-terminal c-myc tag and His6 tag
B5: DLLBII107C03 (VHH)
VHH: EVQLVESGGGLVQPGGSLRLSCEVSGSIGSVSDMRWYRQAPGLQYELVARITSGSITDYSDSVKGRFTISRDNAKNTVYLQMNSLKPEDTAVYYCNADVQHSAWLKPLTYWGQGTQVTVSS
notes: tested as periplasmic extract; also called DLLBII107C3; not shown: C-terminal c-myc tag and His6 tag
B6: DLLBII112A04 (VHH)
VHH: EVQLVESGGGLVQAGGSLRLSCAAFGRTPYGMGWFRQAPGKEREFVAAITSDGSTNYADSVKGRFTISRDNAKNAVSLQMNSLKPEDTAVYYCTAPYYSDFEGTTTEYDYWGQGTQVTVSS
notes: tested as periplasmic extract; also called DLLBII112A4; not shown: C-terminal c-myc tag and His6 tag
B7: DLLBII112E07 (VHH)
VHH: EVQLVESGGGLVQAGGSLRLSCAASGRTVRSYATGWFRQAPGKEREFVAALRWSIGSIASVYYDDSVKGRFTISGDNAENTVYLQMNALKPEDTAIYYCASTTRGRYSALSASAYDYWGQGTQVTVSS
notes: tested as periplasmic extract; also called DLLBII112E7; not shown: C-terminal c-myc tag and His6 tag
B8: DLLBII104B05 (VHH)
VHH: EVQLVESGGGSVQAGGSLRLSCAASGSISRIDVMAWYRQAPGKERELVASISSGGSTNYADSVKGRFTISREYFKNMMYLQMNSLKFEDTAVYYCNADSRRGGVGNFFRSWGQGTQVTVSS
notes: tested as periplasmic extract; also called DLLBII104B5; not shown: C-terminal c-myc tag and His6 tag
B9: DLLBII95F02 (VHH)
VHH: EVQLVESGGGSVQAGGSLRLSCAASGRTFSSYAMGWFRQAPGKEREFVAAINWSGGYTYYADSVRGRFTISRDNAKNTVYLQMNSLKPEDTAVYYCAAPAPGSSGYEYDYWGQGTQVTVSS
notes: tested as periplasmic extract; also called DLLBII95F2; not shown: C-terminal c-myc tag and His6 tag
B10: DLLBII104C04 (VHH)
VHH: EVQLVESGGGLVQAGGSLRLSCAAAGSTFSSYVMGWYRQAPGKQRELVAHISTRGITYYADSVKGRFTISRDNAKNTMYLQMNSLKPEDTAVYYCNTRRNFLSNYWGQGTQVTVSS
notes: tested as periplasmic extract; also called DLLBII104C4; not shown: C-terminal c-myc tag and His6 tag
B11: DLLBII115A05 (VHH)
VHH: EVQLVESGGGLVQPGGSLRLSCAASGFTFGSYDMSWVRRSPGKGPEWVSSINSGGGSTYYADFVKGRFTISRDNAKNTLYLQMNSLKPEDTAVYYCAADRYIRARQGDYWGAYEYDYWGQGTQVTVSS
notes: also called DLLBII115A5; 115A5; not shown: C-terminal c-myc tag and His6 tag
B12: DLLBII61F05 (VHH)
VHH: EVQLVESGGGLVQPGGSLRLSCTASGFTFSSYAMSWVRQAPGKGLEWVSFINKDGSDTGYADSVKGRFTISRDNAKNTMYLQMNSLKPEDTAVYFCETRTSRSPRPRGQGTQVTVSS
notes: tested as periplasmic extract; also called DLLBII61F5; not shown: C-terminal c-myc tag and His6 tag
B13: DLLBII96C03 (VHH)
VHH: EVQLVESGGGLVQPGGSLRLSCAASGFTFGNYDMSWVRQAPGKGPEWVSAINSGGGDTYYADSVKGRFTISRDNAKNTLYLQMNSLKPEDTAVYYCATPRGWGPTGPHEYGYWGQGTQVTVSS
notes: also called DLLBII96C3; DLLBII96CO3; not shown: C-terminal c-myc tag and His6 tag
B14: DLLBII80E08 (VHH)
VHH: EVQLVESGGGLVQAGGSLTLSCAASGGTFTTYAMGWFRQAPGKEREFVAAVSRFGVSWDYADSVKGRFTISRDNTANTLKLRMNSLKADDTAVYYCAAGGRSFLPFVPAYWGQGTQVTVSS
notes: tested as periplasmic extract; also called DLLBII80E8; not shown: C-terminal c-myc tag and His6 tag
B15: DLLBII61F07 (VHH)
VHH: EVQLVESGGGLVQAGGSLRLSCAASGRTFSRYAMGWFRQAPGKEREFVAAINWSGGSTYYADSVKGRFTISRDNAKNTVYLQMNSLKPEDTAVYDCAASNYYSVYDDRPVMDYWGQGTQVTVSS
notes: tested as periplasmic extract; also called DLLBII61F7; not shown: C-terminal c-myc tag and His6 tag
B16: DLLBII102G04 (VHH)
VHH: EVQLMESGGGLVQPGGSLRLSCAASGFTFSSYAMSWVRQAPGKGLEWVSRITSGGRTTYRDSVKGRFTISRDNSKNTLYLQMNSLKPEDTALYYCAKARGDIDVYTLSDSRGQGTQVTVSS
notes: tested as periplasmic extract; also called DLLBII102G4; not shown: C-terminal c-myc tag and His6 tag
B17: DLLBII102F08 (VHH)
VHH: EVQLVESGGGLVQTGDSLRLSCAASGSTFSNYRMGWFRQGPGKEREFVAAIGRNGQNTYYTDSVKGRFTVTRDNAKNMVYLQMNSLKPEDSAVYTCAASLRGWDTTRIDYEYWGQGTQVTVSS
notes: tested as periplasmic extract; also called DLLBII102F8; not shown: C-terminal c-myc tag and His6 tag
B18: DLLBII101F01 (VHH)
VHH: EVQLVESGGGLVQAGGSLRLSCAASGRTFSNYAMGWFRQAPGKEREFVAAISWSGGDTYYADSVKGRFTISRDNAKNTVCLQMNSLKPEDTAVYYCAASFQSGAAPGANFYDYWGQGTQVTVSS
notes: tested as periplasmic extract; also called DLLBII101F1; not shown: C-terminal c-myc tag and His6 tag
B19: DLLBII112A03 (VHH)
VHH: EVQLVESGGGLVQPGGSLRLSCAASGIRFSINGMGWYRQAPGKQREAVATITRGGIRDYTDSVKGRFTISRDIARNTVYLQMNNLKPEDSAVYYCNIDIYWGRGTQVTVSS
notes: tested as periplasmic extract; also called DLLBII112A3; not shown: C-terminal c-myc tag and His6 tag
B20: DLLBII47D01 (VHH)
VHH: EVQLVESGGGLVQPGGSLRLSCAASGFTFDDYAIGWFRQAPGKEREGVSCISSSGSTYYADSVKGRFTISRDNAKNTVYLQMNSLKPEDTAVYYCAIAGASSWCFPPGYWGQGTQVTVSS
notes: tested as periplasmic extract; also called DLLBII47D1; not shown: C-terminal c-myc tag and His6 tag

T2 sequence (Q9NR61 27-685 limits assumed): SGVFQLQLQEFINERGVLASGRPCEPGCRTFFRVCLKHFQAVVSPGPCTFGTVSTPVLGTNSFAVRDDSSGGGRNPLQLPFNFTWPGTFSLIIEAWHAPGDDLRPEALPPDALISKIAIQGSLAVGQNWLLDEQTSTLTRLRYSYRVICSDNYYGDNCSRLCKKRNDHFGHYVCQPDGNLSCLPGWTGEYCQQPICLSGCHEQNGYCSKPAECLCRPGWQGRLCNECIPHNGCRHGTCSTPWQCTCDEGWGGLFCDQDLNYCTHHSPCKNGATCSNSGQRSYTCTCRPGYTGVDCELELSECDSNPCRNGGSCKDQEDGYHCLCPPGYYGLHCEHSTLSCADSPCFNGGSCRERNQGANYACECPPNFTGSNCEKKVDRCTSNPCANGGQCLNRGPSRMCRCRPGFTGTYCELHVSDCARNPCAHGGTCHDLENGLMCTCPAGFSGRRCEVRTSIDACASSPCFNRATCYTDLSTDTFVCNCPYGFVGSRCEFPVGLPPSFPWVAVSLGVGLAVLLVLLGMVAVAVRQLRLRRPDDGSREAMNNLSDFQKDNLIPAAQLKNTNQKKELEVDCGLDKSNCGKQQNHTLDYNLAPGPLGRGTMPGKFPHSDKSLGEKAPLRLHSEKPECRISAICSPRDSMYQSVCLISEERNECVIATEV

The target in one experiment is T1, full length mouse DLL4 on overexpressing CHO or HEK293 cells (mouse, UniProt Q9JI71 27-686).
T1 construct: whole, on cells; also called CHO-mDLL4; mDLL4
T1 sequence (Q9JI71 27-686): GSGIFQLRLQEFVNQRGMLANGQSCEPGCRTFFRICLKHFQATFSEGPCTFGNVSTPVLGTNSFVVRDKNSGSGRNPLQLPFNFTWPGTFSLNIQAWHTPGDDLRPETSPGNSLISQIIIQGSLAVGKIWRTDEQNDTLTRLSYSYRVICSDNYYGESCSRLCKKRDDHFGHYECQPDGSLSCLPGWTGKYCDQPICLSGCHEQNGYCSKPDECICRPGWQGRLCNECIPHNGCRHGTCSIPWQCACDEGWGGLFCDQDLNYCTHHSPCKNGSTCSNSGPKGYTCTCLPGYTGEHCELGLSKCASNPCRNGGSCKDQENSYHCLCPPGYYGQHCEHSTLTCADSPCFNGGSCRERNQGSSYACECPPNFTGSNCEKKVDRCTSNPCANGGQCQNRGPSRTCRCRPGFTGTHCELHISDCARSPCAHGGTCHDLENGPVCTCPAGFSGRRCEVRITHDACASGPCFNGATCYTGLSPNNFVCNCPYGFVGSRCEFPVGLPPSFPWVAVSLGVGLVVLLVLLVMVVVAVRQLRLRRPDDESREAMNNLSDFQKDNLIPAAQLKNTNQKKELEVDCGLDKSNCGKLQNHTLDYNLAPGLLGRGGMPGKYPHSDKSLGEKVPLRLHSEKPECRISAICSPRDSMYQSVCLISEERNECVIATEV
As to the kind of experiment: FMAT, hNotch1/Fc on CHO-mDLL4, periplasmic extract. The text has this:
(§1) All calculations are based on the FL1 total signal which comprises the average of the fluorescence per well times the number of counts per well.
As to B1, the “FMAT mDLL4 % inhibition” value is 75%.
On to B2, for which the “FMAT mDLL4 % inhibition” value came out at 83%.
The same measure, in the same setting: in the case of B3 it was 71%; in that of B4, 73%; in that of B5, 80%.
B6: the “FMAT mDLL4 % inhibition” value stood at 90%.
Same read-out and setting: the same measure for B7: 85%.
Still for that read-out and setting: in the case of B8 it was 78%.
Regarding B9, the “FMAT mDLL4 % inhibition” value is 71%.
With B10, the “FMAT mDLL4 % inhibition” value came out at 83%.
The same measure, in the same setting: in the case of B11 it was 84%; in that of B12, 76%; in that of B13, 83%.
Still for that read-out and setting: in the case of B14 it was 82%; in that of B15, 77%; in that of B16, 82%.
The same measure, in the same setting: in the case of B17 it was 75%; in that of B18, 78%.
For the molecule B19, the “FMAT mDLL4 % inhibition” value stood at 97%.

The next experiment concerns the target T2, full length human DLL4 on overexpressing CHO or HEK293 cells (human, UniProt Q9NR61 27-685).
T2 construct: also called CHO-hDLL4; HEK293-hDII4
Briefly: FMAT, hNotch1/Fc on CHO-hDLL4, periplasmic extract.
Excerpt: as §1
For B1, the “FMAT hDLL4 % inhibition” value came to 87%.
The same measure, in the same setting: in the case of B2 it was 86%; in that of B3, 74%; in that of B4, 95%.
The same measure, in the same setting: the same measure for B5: 75%.
The same measure, in the same setting: in the case of B6 it was 75%; in that of B7, 80%.
With B8, the “FMAT hDLL4 % inhibition” value was found to be 86%.
The same measure, in the same setting: in the case of B9 it was 81%; in that of B10, 87%; in that of B11, 74%.
Still for that read-out and setting: in the case of B12 it was 74%; in that of B13, 75%; in that of B20, 87%.
The same measure, in the same setting: the same measure for B14: 71%; for B15: 79%; for B16: 86%.
In the case of B17, the “FMAT hDLL4 % inhibition” value is 85%.
Still for that read-out and setting: in the case of B18 it was 85%; in that of B19, 72%.
